Measured values reported in patent publication US20250313626A1 (HARBOUR BIOMED SHANGHAI, published 2025).
Numbering of substitutions follows the chain as printed. Where two headings read alike, the source gives them in different places.

T1: CD200R1a on PathHunter Jurkat CD200R1a signaling cells (Eurofins DiscoverX, 93-1136C19) (human, UniProt Q8TD46 25-348)
T1 sequence: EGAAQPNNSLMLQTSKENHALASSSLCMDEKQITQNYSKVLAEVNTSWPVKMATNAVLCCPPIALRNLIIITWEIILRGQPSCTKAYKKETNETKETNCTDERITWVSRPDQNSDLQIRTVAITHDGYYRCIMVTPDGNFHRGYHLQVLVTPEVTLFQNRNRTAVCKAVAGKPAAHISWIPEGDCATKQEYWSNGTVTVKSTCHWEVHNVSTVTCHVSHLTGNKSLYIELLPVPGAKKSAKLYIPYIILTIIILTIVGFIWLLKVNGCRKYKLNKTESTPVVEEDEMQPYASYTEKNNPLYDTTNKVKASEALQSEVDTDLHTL

T2: human CD200R1 isoform a on CHOK1 cells (CHOK1/hCD200R1a) (human, UniProt Q8TD46 25-348)
T2 construct: also called CHOK1/CD200R1a
T2 sequence: T1 sequence

T3: Cynomolgus macaques CD200R1 isoform a on CHOK1 cells (CHOK1/cynoCD200R1a) (Cynomolgus macaques)
T3 chain: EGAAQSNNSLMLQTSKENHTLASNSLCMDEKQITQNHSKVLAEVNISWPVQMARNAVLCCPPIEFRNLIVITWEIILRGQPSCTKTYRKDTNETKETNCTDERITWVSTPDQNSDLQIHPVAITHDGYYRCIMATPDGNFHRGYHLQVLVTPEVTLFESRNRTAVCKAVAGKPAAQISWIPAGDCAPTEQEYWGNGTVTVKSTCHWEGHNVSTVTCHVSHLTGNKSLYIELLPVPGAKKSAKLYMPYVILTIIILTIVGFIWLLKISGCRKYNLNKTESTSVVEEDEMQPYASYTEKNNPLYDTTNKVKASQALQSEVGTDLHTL

B1: PR007221 (antibody, human IgG1, kappa)
heavy: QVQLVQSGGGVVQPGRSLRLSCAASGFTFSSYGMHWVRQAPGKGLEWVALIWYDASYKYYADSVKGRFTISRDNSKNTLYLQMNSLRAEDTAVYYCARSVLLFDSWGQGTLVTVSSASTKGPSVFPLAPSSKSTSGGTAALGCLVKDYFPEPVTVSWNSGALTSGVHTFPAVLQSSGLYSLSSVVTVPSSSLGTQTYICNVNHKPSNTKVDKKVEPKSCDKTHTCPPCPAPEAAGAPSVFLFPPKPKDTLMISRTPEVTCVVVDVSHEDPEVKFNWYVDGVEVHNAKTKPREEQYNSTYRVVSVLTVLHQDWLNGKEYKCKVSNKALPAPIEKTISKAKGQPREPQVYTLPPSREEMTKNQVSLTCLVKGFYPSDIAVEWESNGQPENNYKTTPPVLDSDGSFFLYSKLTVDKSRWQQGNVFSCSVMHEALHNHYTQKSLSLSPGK
light: DIQLTQSPPSLSASVGDRVTITCRASQSISSYLNWFQQKAGKAPKLLISATSNLQSGVPSRFSGSGSGTDFTLTISSLQPEDLATYYCQQTLSSPYTFGQGTKVEIKRTVAAPSVFIFPPSDEQLKSGTASVVCLLNNFYPREAKVQWKVDNALQSGNSQESVTEQDSKDSTYSLSSTLTLSKADYEKHKVYACEVTHQGLSSPVTKSFNRGEC
notes: PTM variant of PR006895 (human IgG1)
B2: PR007223 (antibody, human IgG1, kappa)
heavy: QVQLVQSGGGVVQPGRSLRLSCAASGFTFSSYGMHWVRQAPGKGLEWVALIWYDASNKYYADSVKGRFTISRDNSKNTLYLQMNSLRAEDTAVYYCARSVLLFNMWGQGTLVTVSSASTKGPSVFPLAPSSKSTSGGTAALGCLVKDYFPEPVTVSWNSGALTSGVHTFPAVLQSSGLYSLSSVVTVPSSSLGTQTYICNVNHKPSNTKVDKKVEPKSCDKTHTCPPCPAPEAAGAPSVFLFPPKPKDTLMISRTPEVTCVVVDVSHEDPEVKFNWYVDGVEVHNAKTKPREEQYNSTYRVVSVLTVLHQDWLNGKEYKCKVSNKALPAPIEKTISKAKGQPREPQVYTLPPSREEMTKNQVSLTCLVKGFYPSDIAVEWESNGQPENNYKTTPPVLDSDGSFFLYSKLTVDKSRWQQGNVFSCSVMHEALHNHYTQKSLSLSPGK
light: B1 light with L92Y
notes: as for B1
B3: PR005509 (antibody, human IgG1, kappa, L234A L235A, V domains shown)
VH: QVQLVESGGGVVQPGRSLRLSCAASGFTFSSYGFHWVRQAPGKGLEWLGLIWSDGSNKYYADSVKGRFTISRDNSKNTLYLQMNSLRAEDTAVYYCARDRIVGAGFDYWGQGTLVTVSS
VL: not shown
B4: PR007973 (antibody, human IgG1, kappa, V domains shown)
VH: B3 VH with L50I, G55A, A104E
VL: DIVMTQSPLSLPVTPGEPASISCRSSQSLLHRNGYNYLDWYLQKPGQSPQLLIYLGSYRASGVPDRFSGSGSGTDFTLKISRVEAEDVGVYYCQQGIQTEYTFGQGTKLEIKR
notes: PTM variant of PR006839 (human IgG1)
B5: PR002906 (antibody, V domains shown)
VH: QVQLQESGPGLVKPSETLSLTCTVSGYTITSGYDWSWIRQPPGKGLEWIGYINYGGSTNYKPSLGSRVTISVDTSKNQFSLKLSSVTAADTAVYYCARYNEYKSYIYDWYFDFWGQGTLVTVSS
VL: DIQMTQSPSSLSASVGDRVTITCKASKNIRSYLAWYQQKPGKAPKLLIYSGSTLHSGVPSRFSGSGSGTDFTLTISSLQPEDFATYYCQQHHEYPLTFGQGTKVEIKR
notes: also called recombinant IgG1 antibody of huDX182

Columns and labels:
[1] = molecular target: T1, CD200R1a on PathHunter Jurkat CD200R1a …; experiment: cell-based or functional assay
[2] = molecular target: T2, human CD200R1 isoform a on CHOK1 cells …; experiment: flow cytometry blocking assay: antibody titrated against human CD200 binding to CHOK1/hCD200R1a cells
[3] = molecular target: T2, human CD200R1 isoform a on CHOK1 cells …; experiment: flow cytometry, CHOK1/hCD200R1a cells; table beside the curves, head without unit, x axis Log [Ab] (nM)
Description: (§1) This example is intended to investigate the in vitro binding activity of human anti-CD200R1 monoclonal antibodies to human/Cynomolgus macaques CD200R1a expressed on the surface of cells. The anti-CD200R1 antibodies were produced as described in Example 3.4 and the binding experiments at the cell level were performed using CHOK1/hCD200R1a and CHOK1-cynoCD200R1a.
(§2) Briefly, CHOK1/hCD200R1a cells and CHOK1-cynoCD200R1a cells were digested, and collected, and then were resuspended in PBS containing 2% BSA, respectively. The cell density was adjusted to 1×10⁶ cells/mL. The cells were seeded in a 96-well V-bottom plate (Corning, #3894) at 100 μL/well, followed by the addition of test antibodies and reference antibodies in a series diluted concentration, each at 100 μL/well. The cells were incubated away from light at 4° C. for 1 h. Thereafter, the cells in each well were rinsed twice with 100 μL of pre-cooled PBS containing 2% BSA, and centrifuged at 500 g at 4° C. for 5 min, and then the supernatant was discarded. […] Finally, the cells in each well were resuspended in 200 μL of pre-cooled PBS containing 2% BSA, and the fluorescence signal values were read using a BD CantoII flow cytometer.

[4] = molecular target: T2, human CD200R1 isoform a on CHOK1 cells …; experiment: flow cytometry, CHOK1/hCD200R1a cells; table beside the curves
Description: as §1, §2

[5] = molecular target: T3, Cynomolgus macaques CD200R1 isoform a …; experiment: flow cytometry, CHOK1/cynoCD200R1a cells (APC-A Mean); table beside the curves
[6] = molecular target: T1, CD200R1a on PathHunter Jurkat CD200R1a …; experiment: cell-based or functional assay; remark: listed apart in the source
[7] = molecular target: T2, human CD200R1 isoform a on CHOK1 cells …; experiment: flow cytometry blocking assay: antibody titrated against biotin-labelled human CD200 binding to CHOK1/hCD200R1a cells; head prints EC50 without unit, x axis Log [Ab] (nM), y axis Inhibition %
Description: (§3) In brief, CHOK1/hCD200R1a cells were digested and resuspended in 2% BSA in PBS. […] The cells were placed at 4° C. and incubated for 1 hour in the dark. […] 100 μL/well of pre-cooled PBS containing 2% BSA was added to rinse the cells twice, centrifugation was performed at 500 g, 4° C. for 5 minutes, and the supernatant was discarded. Fluorescent secondary antibody (PE Streptavidin, BD, Cat #: 554061, 1:200) was added at 100 μL/well, and incubation was performed at 4° C. for 30 minutes in the dark. The cells were washed twice with 200 μL/well of pre-cooled PBS, and were centrifuged at 500 g, 4° C. for 5 minutes, and the supernatant was discarded. Finally, 200 μL/well of pre-cooled PBS was used to resuspend the cells, and the fluorescence signal values were read using ACEA Novocyte 3000 flow cytometer. IC50 values were calculated.

[8] = molecular target: T2, human CD200R1 isoform a on CHOK1 cells …; experiment: flow cytometry, CHOK1/hCD200R1a cells (FITC-Mean); table beside the curves, head without unit, x axis Log [Ab] (nM)
[9] = molecular target: T2, human CD200R1 isoform a on CHOK1 cells …; experiment: flow cytometry blocking assay: biotin-labelled human CD200 binding to CHOK1/hCD200R1a cells; y axis Inhibition %
Description: as §3

Row | Binder | IC50 of the inhibition of CD200-induced PathHunter Jurkat CD200R1a luminescence (CHOK1/hCD200 cells as CD200 source) [1] | IC50 (read off the curve) [2] | EC50 [3] | MFI(Max) [4] | EC50 [5] | MFI (MAX) [5] | IC50 of the inhibition of CD200-induced PathHunter Jurkat CD200R1a luminescence (CHOK1/hCD200 cells as CD200 source) [6] | EC50 [7] | EC50 [8] | Blocking(Max) [9]
1 | B1 | 1.27 nM |  |  |  |  |  |  |  |  | 
2 | B2 |  | ~10 nM |  |  |  |  |  |  |  | 
3 | B3 |  |  | 6.57 nM | 101000 |  |  |  |  |  | 
4 | B4 |  | ~10 nM |  |  | 3.78 nM | 62500 | 0.706 nM | 0.36 nM | 0.339 nM | 100%
5 | B5 |  |  | 15.2 nM | 131000 | 16.4 nM | 23900 |  | 0.463 nM | 0.436 nM | 96.6%
